Reference: the supplement of paper PMC9170038

These sequences were tested on MS2 coat protein (assay: apparent KD of MS2 coat protein, switch OFF state (with FMN for OFF switches, without FMN for ON switches); designed switch direction (-1 OFF switch, 1 ON switch): -1; higher = weaker reporter binding). Details: FMN input: 0 or 200 uM; Eterna round: R93 (includes R88 designs).
Procedure, shortened: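 Apparent KD per design is the median of normalised cluster binding-curve fits. Designed RNA switches transcribed on-chip from Illumina sequencing clusters were titrated with SNAP-549-labelled MS2 coat protein in twofold steps from 0.7 or 1.5 nM to 3 µM, with 0.8–1.5 h down to 10–20 min per step. Buffer: 100 mM Tris-HCl pH 7.5, 80 mM KCl, 4 mM MgCl2, without or with constant ligand.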
With “AGAAAACAUGAGGAUCACCCAUGUGAGGAUAUGCGAAUAAAGAAACAAAUAAAAGAAAGCAGAAGGCACAACAA [Ex 1 Tesla 4]” the “apparent KD of MS2 coat protein” value was 36 nM. “AAAAAGGCAGGAUAUACGAGUCAAAGAAAAGACAAAAGGAGACAUGAGGAUCACCCAUGUAGAAGGGCCAAAAA [Fiskers exclusion D2 62% 5]” was tested, and the “apparent KD of MS2 coat protein” value was 48.8 nM. In the case of “AACAAGACAGGAUAUACAUGAGGAUCACCCAUGUGAGAAUAAAGUGGCGUAACACAAAGUAGAAGGGUCAUGGA [Ruby 6]”, the “apparent KD of MS2 coat protein” value is reported as 55.5 nM. In the case of “CUCAUGUCAGGAUAUCAGUAGUAAAAAAAUAAAAUUACUACUGAGAAGGGACAUGAGGAUCACCCAUGUCCAAA [EX4 367: Super Stable 67]”, the “apparent KD of MS2 coat protein” value is reported as 36.1 nM. With “AAGAAUGGAGGAUAUACAUGAGGAUCACCCAUGUAAAAGAAAGAAAAGGGAAAGAAAAGUAGAAGGCCAAAGAA [Sekhaenre/Akhenre Merenptah Siptah]” the “apparent KD of MS2 coat protein” value was 41 nM. With “GCUUGGGUAGGAUAUACAUGAGGAUCACCCAUGUGAGAGAAAAAAGUGAGAAAGAAAAGUAGAAGGACUUGAGG [salish99-ex3-83]” the “apparent KD of MS2 coat protein” value was 174 nM. In the case of “AAAAUGUUAGGAUAUGUGAAGGCGUCUGAUAGACGAGGCCUGCAGAAGGAACAUGAGGAUCACCCAUGUAAAAA [Mod 3 of Nando's Round 1 Power Srip]”, the “apparent KD of MS2 coat protein” value is reported as 25.6 nM. “UAACAGUCAGGAUAUGGACAAUACAAUACAAACAAAUAAAGCCAGAAGGGACAUGAGGAUCACCCAUGUAAACA [Simple]” was tested, and the “apparent KD of MS2 coat protein” value was 23 nM. For “AGGAAACAUGAGGAUCACCCAUGUGAGGAUAUUCAAAAGAAAAGAAAAGAAAGAAGAAGAAGAAGGCACAAGAA [Khayu]”, the “apparent KD of MS2 coat protein” value was 33.5 nM. “AACAAGUCAGGAUAUCAUACUAAUCACUUGCUUUAAAUGUAUGAGAAGGGACAUGAGGAUCACCCAUGUAAAGA [Exclusion4-cac3]” was tested, and the “apparent KD of MS2 coat protein” value was 34.1 nM. With “GGUUGUGGAGGAUAUACAUGAGGAUCACCCAUGUGAGAGAAAAAAGUGAGAAAGAAAAGUAGAAGGUCAUGACG [salish99-ex3-65]” the “apparent KD of MS2 coat protein” value was 46.8 nM. In the case of “AAGAAGUCAGGAUAUGGUGCUCGUCACUUGCGUGAUGAGUACCAGAAGGGACAUGAGGAUCACCCAUGUAAAGA [Opal 21]”, the “apparent KD of MS2 coat protein” value is reported as 60 nM. For “AACACACAUGAGGAUCACCCAUGUCAGGAUAUGCCGGGUUAGAGCCAACUGAAAAACCGUAGAAGGGACGAAAA [Bilbo Confounded 9 - Jieux - Exclusion 1]”, the “apparent KD of MS2 coat protein” value was 61.6 nM. With “AAAAAACAUGAGGAUCACCCAUGUAAGGAUAUGCUCGGGCGAAAAAGCAAAAAAAAGAGCAGAAGGUACAAAAA [66%, Wbt, 42]” the “apparent KD of MS2 coat protein” value was 38.7 nM. In the case of “AGAAUACAUGAGGAUCACCCAUGUGAGGAUAUGUAGAUAAAAAUAAAAUAAAAUAAAUACAGAAGGCACAAAAG [EX 1 May 19]”, the “apparent KD of MS2 coat protein” value is reported as 59.7 nM. “CUUAAACAUGAGGAUCACCCAUGUGAGGAUAUGAUGCGAAUAAAGAAAGAAGAAAGCAUCAGAAGGCACAUAUG” was tested, and the “apparent KD of MS2 coat protein” value was 129 nM. In the case of “AAAGUACGAGGAUAUACAUAGAUACAGAUACAUGUAGACGUACAUGAGGAUCACCCAUGUAGAAGGCGUACAAG [Mat - Same state - Mayanna Mod - D116]”, the “apparent KD of MS2 coat protein” value is reported as 327 nM. In the case of “UGUUGGCGAGGAUAUACAUGAGGAUCACCCAUGUGAGAGAAAAAAGUGAGAAAGAAAAGUAGAAGGCGCUGACA [salish99-ex3-07]”, the “apparent KD of MS2 coat protein” value is reported as 282 nM. “AGGAAACAUGAGGAUCACCCAUGUGAGGAUAUUGAAAAGAAAAGAAAAGAAAGAAGAACAAGAAGGCACAAGAA [Tiu]” was tested, and the “apparent KD of MS2 coat protein” value was 31.5 nM. “AGAAAGUCAGGAUAUAUGCGAAAAAUAAAAAAAAUAAAAACAUAGAAGGGACAUGAGGAUCACCCAUGUUAAGA [Mat - Exclusion 4 - Mayanna - D136]” was tested, and the “apparent KD of MS2 coat protein” value was 32 nM. “AAAUAGCAAGGAUAUACAUGAGGAUCACCCAUGUAAAAAUGGAAAGUAAAAGAAUAAAGUAGAAGGUGCAAAUA [Ex 3 Tesla 2]” was tested, and the “apparent KD of MS2 coat protein” value was 36.9 nM. With “AACAGGUUAGGAUAUAUCCAACAAAUAAAAAAAAUAUAAGGAUAGAAGGAACAUGAGGAUCACCCAUGUUAACA [May 30]” the “apparent KD of MS2 coat protein” value was 17.1 nM. With “AAGGUACGAGGAUAUACAUAGAUACAGACACAUGUGGAUGUACAUGAGGAUCACCCAUGUAGAAGGCGUAUAUA [AJ 21]” the “apparent KD of MS2 coat protein” value was 101 nM. For “AAAAAAGGAGGAUAUACGUACAUGUCAAAAGACGUGAAGGGACAUGAGGAUCACCCAUGUAGAAGGCCUAAAAA [JL Part Open 33]”, the “apparent KD of MS2 coat protein” value was 78.3 nM. With “AAAAGGAUAGGAUAUACAUGAGGAUCACCCAUGUGAAUAAAUAAAAUAAAUAAAUAAAGUAGAAGGGUCAAUAA [LROPPY Exclusion 3 - v05_deltaG=3.6 break up the As]” the “apparent KD of MS2 coat protein” value was 25.4 nM. For “AAAAAACAUGAGGAUCACCCAUGUAAGGAUAUGCAGAUUAUAAGAAAAAAAAAAAAAAGCAGAAGGUACAAAAA [Default title]”, the “apparent KD of MS2 coat protein” value was 28.2 nM. With “AAGAAGUCAGGAUAUGCCAAAGAUCACGAAAGUGACUAAGGGCAGAAGGGACAUGAGGAUCACCCAUGUAAAGA [Opal 4]” the “apparent KD of MS2 coat protein” value was 52.8 nM. “AAGGUACGAGGAUAUACAUAGAUACAGACACAUGUUCAUGUACAUGAGGAUCACCCAUGUAGAAGGCGUAUAUA [AJ 17]” was tested, and the “apparent KD of MS2 coat protein” value was 147 nM. In the case of “AGCUAGUCAGGAUAUACGAAAAUGAACGAAGCUGAGAAGGGACAUGAGGAUCACCCAUGUAGAAGGGACUAGCA [Diamond 34]”, the “apparent KD of MS2 coat protein” value is reported as 137 nM. For “AAGAAGGUAGGAUAUACAUGAGGAUCACCCAUGUAAAAGAAAGAAAGGGAAAAGAAAAGUAGAAGGACCAAGAA [Usermaatre Amenemope]”, the “apparent KD of MS2 coat protein” value was 27.4 nM. For “AAGAGACAUGAGGAUCACCCAUGUGAGGAUAUGACGUAAAUAAAGAAAGAAGAAAUCGUCAGAAGGCACACCAA [55%, Disencluded 2, 4]”, the “apparent KD of MS2 coat protein” value was 75.8 nM. In the case of “AAAAAACAUGAGGAUCACCCAUGUAAGGAUAUGACUUAAAUAAAGAAAGAAGAAAUAGUCAGAAGGUACAAAUA [Disincluded (MS2 Riboswitches - States energetically close)]”, the “apparent KD of MS2 coat protein” value is reported as 31 nM. In the case of “AAAAUACAUGAGGAUCACCCAUGUGAGGAUAUUAGAAAGGGAAUAAAAUAACCCAAACUAAGAAGGCACAAAAA [Ex 1 May 27]”, the “apparent KD of MS2 coat protein” value is reported as 35.3 nM. With “AGCUAGUCAGGAUAUACGAAAAUGUAAAAAGAAGUGAAGGGACAUGAGGAUCACCCAUGUAGAAGGGACUAGAA [74%, Web mod - With 4 less C's]” the “apparent KD of MS2 coat protein” value was 116 nM. With “AGAAAGUCAGGAUAUACAGAAAAAAAAACGAAAAAAAAUCUGUAGAAGGGACAUGAGGAUCACCCAUGUAAAGA [Mat - Exclusion 4 - Mayanna - D124]” the “apparent KD of MS2 coat protein” value was 36.8 nM. With “AAGAAGUGAGGAUAUCGAAAAGAAAAGAAAAGAAAAGAAAACGAGAAGGCACAUGAGGAUCACCCAUGUAAGAA [Setutre Darius I the Great]” the “apparent KD of MS2 coat protein” value was 41 nM. “AACUGACAUGAGGAUCACCCAUGUCAGGAUAUGCUUCAUAAAACAAAAACAAAAUGAUGCAGAAGGGACAUGAA [Design 26 :P Sub-opt 2]” was tested, and the “apparent KD of MS2 coat protein” value was 14.6 nM. In the case of “CUCUAGUUAGGAUAUGCAAGAAAAGAAAAGAAAGAAAAGAAGCAGAAGGAACAUGAGGAUCACCCAUGUAAGAA [EteRNA is fun!]”, the “apparent KD of MS2 coat protein” value is reported as 62.5 nM. “CCAGGACAUGAGGAUCACCCAUGUGAGGAUAUCUGUAUUCAAUCCUCGGAUUGAAUACAGAGAAGGCACAUGGA [Ex1: 659]” was tested, and the “apparent KD of MS2 coat protein” value was 26.8 nM. In the case of “AAGAAGGCAGGAUAUACAUGAGGAUCACCCAUGUAAAAGAAAGAGGGAAAAGAGAAAAGUAGAAGGGCCAAGAA [Setepenre-meryamun Alexander III]”, the “apparent KD of MS2 coat protein” value is reported as 75 nM. With “AGAAAGUCAGGAUAUGCAGAUAAAAAAACGAAAAAAAAUCUGCAGAAGGGACAUGAGGAUCACCCAUGUAAAGA [Mat - Exclusion 4 - Mayanna - D111]” the “apparent KD of MS2 coat protein” value was 40.2 nM. For “CUCUUGUCAGGAUAUAGAAGAAAAGAAGAGAAAGAAAAGAACUAGAAGGGACAUGAGGAUCACCCAUGUAAGAA [EteRNA is fun!]”, the “apparent KD of MS2 coat protein” value was 49.2 nM. In the case of “UUAGAACAUGAGGAUCACCCAUGUGAGGAUAUGCAAUACUAAAAAAAAGAUAAUUAUAGCAGAAGGCACGUAGU [JR_EXc001_Sub805]”, the “apparent KD of MS2 coat protein” value is reported as 41.4 nM. “AACAGGACAGGAUAUACAUGAGGAUCACCCAUGUCACAACAAAGCAGCGCAACACAAAGUAGAAGGGUCAUGGA [Ruby 13]” was tested, and the “apparent KD of MS2 coat protein” value was 59.1 nM. “AGUAUGCGAGGAUAUACAUGAGGAUCACCCAUGUGAGAGAUAAAAGUGAGAAAGACAUGUAGAAGGCGCGUACA [JL Lego Mod 24]” was tested, and the “apparent KD of MS2 coat protein” value was 27 nM.
